# Data: paper PMC7765622, “The Cardioprotective PKA-Mediated Hsp20 Phosphorylation Modulates Protein Associations Regulating Cytoskeletal Dynamics” (International Journal of Molecular Sciences, 2020)
# T1: GST-CFL2 (amino acids 1-55) (Homo sapiens (Human), UniProt Q9Y281)
# T1 chain: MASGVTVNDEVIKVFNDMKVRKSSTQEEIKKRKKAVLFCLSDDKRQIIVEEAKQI
# T2: GST-CFL2 (amino acids 1-166), non-phosphorylated (Homo sapiens (Human), UniProt Q9Y281)
# T2 chain: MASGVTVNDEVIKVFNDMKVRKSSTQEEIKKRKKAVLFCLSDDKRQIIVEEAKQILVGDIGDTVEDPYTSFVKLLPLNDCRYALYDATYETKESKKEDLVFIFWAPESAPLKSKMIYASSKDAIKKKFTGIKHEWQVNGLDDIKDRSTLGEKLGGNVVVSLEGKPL
# T3: MBP-14-3-3 (amino acids 1-247), full length 14-3-3 gamma (human, UniProt P61981 1-247)
# T3 construct: 14-3-3 gamma, human, amino acids 1-247, cloned by RT-PCR on human muscle cDNA into pMALc2x; also called in vitro expressed 14-3-3; source: recombinant, expression as previously described [58]
# T3 sequence (looked up): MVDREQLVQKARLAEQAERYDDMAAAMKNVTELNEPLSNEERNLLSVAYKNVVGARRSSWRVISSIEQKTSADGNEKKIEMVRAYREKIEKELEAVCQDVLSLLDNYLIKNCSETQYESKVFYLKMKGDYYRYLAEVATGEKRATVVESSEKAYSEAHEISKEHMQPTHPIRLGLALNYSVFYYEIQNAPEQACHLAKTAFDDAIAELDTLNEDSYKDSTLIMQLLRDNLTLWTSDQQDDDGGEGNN
# B1: MBP-14-3-3 (amino acids 1-247), full length 14-3-3 gamma (protein)
# chain: MVDREQLVQKARLAEQAERYDDMAAAMKNVTELNEPLSNEERNLLSVAYKNVVGARRSSWRVISSIEQKTSADGNEKKIEMVRAYREKIEKELEAVCQDVLSLLDNYLIKNCSETQYESKVFYLKMKGDYYRYLAEVATGEKRATVVESSEKAYSEAHEISKEHMQPTHPIRLGLALNYSVFYYEIQNAPEQACHLAKTAFDDAIAELDTLNEDSYKDSTLIMQLLRDNLTLWTSDQQDDDGGEGNN
# B2: MBP-14-3-3 (amino acids 115-247) (domain or fragment, human, UniProt P61981 115-247, looked up)
# chain: TQYESKVFYLKMKGDYYRYLAEVATGEKRATVVESSEKAYSEAHEISKEHMQPTHPIRLGLALNYSVFYYEIQNAPEQACHLAKTAFDDAIAELDTLNEDSYKDSTLIMQLLRDNLTLWTSDQQDDDGGEGNN
# notes: 14-3-3 gamma, human, amino acids 115-247, in pMALc2x; also called MBP-14-3-3 C-terminal deletion construct; C-terminal fragment of 14-3-3; source: recombinant, expression as previously described [58]
# B3: GST-Hsp20 (amino acids 1-160), wild type, phosphorylated in vitro by PKA at Ser16 (natural protein, human, UniProt O14558 1-160, looked up)
# chain: MEIPVPVQPSWLRRASAPLPGLSAPGRLFDQRFGEGLLEAELAALCPTTLAPYYLRAPSVALPVAQVPTDPGHFSVLLDVKHFSPEEIAVKVVGEHVEVHARHEERPDEHGFVAREFHRRYRLPPGVDPAAVTSALSPEGVLSIQAAPASAQAPPPAAAK
# modifications: phosphoserine at 16 (PKA in vitro)
# notes: Hsp20 (HspB6), amino acids 1-160, wild type; construct previously reported [16,53,57]; Same construct as m7, after PKA treatment; also called phosphorylated GST-Hsp20; GST-p-Hsp20; source: recombinant, purified on Glutathione Sepharose 4B; phosphorylated in vitro with PKA catalytic subunit (New England Biolabs), 30 °C, 1 h
# B4: GST-Hsp20-S16D (natural protein, human, UniProt O14558 1-160, looked up)
# chain: MEIPVPVQPSWLRRADAPLPGLSAPGRLFDQRFGEGLLEAELAALCPTTLAPYYLRAPSVALPVAQVPTDPGHFSVLLDVKHFSPEEIAVKVVGEHVEVHARHEERPDEHGFVAREFHRRYRLPPGVDPAAVTSALSPEGVLSIQAAPASAQAPPPAAAK
# notes: Hsp20 (HspB6), amino acids 1-160, made by PCR mutagenesis on the WT Hsp20 GST-tagged plasmid; Phosphomimetic at Ser16; also called GST-p-Hsp20-S16D (after PKA treatment); source: recombinant, purified (Glutathione Sepharose 4B), eluted; used untreated or PKA-treated
# B5: MBP-14-3-3 (amino acids 1-120) (protein)
# chain: MVDREQLVQKARLAEQAERYDDMAAAMKNVTELNEPLSNEERNLLSVAYKNVVGARRSSWRVISSIEQKTSADGNEKKIEMVRAYREKIEKELEAVCQDVLSLLDNYLIKNCSETQYESK
# Assays:
# [1] = target: T1, GST-CFL2 (amino acids 1-55); assay: blot overlay
# [2] = target: T2, GST-CFL2 (amino acids 1-166), …; assay: blot overlay
# [3] = target: B3; assay: far-Western, overlay or dot blot; purified GST fusion proteins separated by SDS-PAGE and transferred to nitrocellulose; membranes incubated with MBP-14-3-3 fusion protein (or MBP as control); detection with anti-MBP; details: both partners purified
# [4] = target: T3, MBP-14-3-3 (amino acids 1-247), full …; assay: pull-down; same samples as a4: eluted GST-Hsp20 proteins (PKA-treated or not) bound to MBP-14-3-3 on amylose resin, in the presence of myc-CFL2 HEK 293 lysate; blot with phospho-Hsp20 or GST antibody; details: both partners purified
Binder,binding result [2],binding result [4],also measured
B1,binds,–,binding result [1]: binds
B2,–,–,binding result [3]: binds
B3,–,binds,–
B4,–,binds,–
B5,binds,–,–
